Assay results reported in article PMC5233953.

Legend:
[1] = target: FrpD_(43-271) protein (Neisseria meningitidis); experiment: SAXS; beamline X33 EMBL, room temperature; FrpD 1–9 mg/ml, FrpD-FrpC_(1-414) complex 1–5 mg/ml; molecular mass from the Porod volume
[2] = target: FrpD_(43-271) protein (Neisseria meningitidis); experiment: SEC; Superdex 200 HR column; free proteins and an equimolar mixture of purified FrpD and FrpC_(1-414)
[3] = target: FrpD_(43-271) protein (Neisseria meningitidis); experiment: cross-linking; FrpD-FrpC_(1-414) complex (1 mg/ml, 14 μM) with a 1:1 mixture of d0/d4 BS2G, 30 min; 70-kDa band digested with trypsin, nano-ESI-FTICR mass spectrometry

Measured: stoichiometry N

B1: FrpC_(1-414), the N-terminal domain of FrpC (domain or fragment)
chain: MNEGEVVLTPEQIQTLRGYASRGDTYGGWRYLANLGDRYADNAAAIVGKDTNLNGLNLWMKKGVENLWDDTVGKKTRLEKFDRVALQHFSQYVDLINKNNGRLPNTSEIERSYYKAVTYHGVSSSAAIDLVINRSLPDMADGYWALGLGIEAERIHNEQAVNNPNGSERDNRKQLISALDKGFDGSFKEKHFTFLQSVMMDLTKLGVEYTIDGWQKIGGWGNGIINDLYKSVVKREWTGIFEIVNNNIKQGNEAFKNEINSLVHDMKAAGKEFGDDLNTQWNNLTQAAEIIYNDIVDNTSQGIEKGVKAIKELSEKMKNAASDLADGSAEKAKQVVEDLAQAAKEAYENAKSTAEKAAQAAREFFKGLPSFKDLAEKFRDLFPNPEGWIDDGHQCFAPWVKETKKRNGKYHVYD
1: all assays above
